Measured values: the supplement of paper PMC5998384

Legend:
[1] = tested on: HeLa Kyoto; assay: melting temperature (median over replicates), in situ; higher = more thermally stable
[2] = tested on: HeLa Kyoto; assay: solubility change mitosis vs G1/S (difference of NP-40 vs SDS log2 ratios) (log2 ratio difference); higher = more soluble in mitosis
[3] = tested on: HeLa Kyoto; assay: solubility in G1/S (NP-40 vs SDS abundance) (log2 ratio); higher = more soluble; conditions: cell cycle stage: G1/S
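Throughout, for melting temperature (median over replicates), in situ: HeLa Kyoto cells synchronized by double thymidine or nocodazole block, proteins quantified by TMT10plex mass spectrometry, three independent biological replicates.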
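Throughout, for solubility change mitosis vs G1/S (difference of NP-40 vs SDS log2 ratios): synchronized HeLa Kyoto cells (double thymidine block for G1/S, nocodazole release for mitosis), protein amounts in NP-40 versus SDS lysates quantified by mass spectrometry, three biological replicates.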
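Throughout, for solubility in G1/S (NP-40 vs SDS abundance): HeLa Kyoto cells arrested at G1/S by double thymidine block, proteins quantified by TMT10plex mass spectrometry in mild NP-40 versus SDS extracts, three biological replicates.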

Substance	melting temperature ([1]; cell cycle stage: mitosis) [°C]	solubility change mitosis (log2) [2]	solubility in G1/S (log2) [3]	melting temperature ([1]; cell cycle stage: G1/S) [°C]
DLG5	47.5	0.289	-0.385	
KANSL3	48.6	0.061	0.155	
MNRLPDDYDPYAVEEPSDEEPALSSSEDEVDVLLHGTPDQKRKLIRECLTGESESSSEDEFEKEMEAELNSTMKTMEDKLSSLGTGSSSGNGKVATAPTRYYDDIYFDSDSEDEDRAVQVTKKKKKKQHKIPTNDELLYDPEKDNRDQAWVDAQRRGYHGLGPQRSRQQQPVPNSDAVLNCPACMTTLCLDCQRHESYKTQYRAMFVMNCSINKEEVLRYKASENRKKRRVHKKMRSNREDAAEKAETDVEEIYHPVMCTECSTEVAVYDKDEVFHFFNVLASHS [EAPP]		0.14	0.159	50.3
MLRREARLRREYLYRKAREEAQRSAQERKERLRRALEENRLIPTELRREALALQGSLEFDDAGGEGVTSHVDDEYRWAGVEDPKVMITTSRDPSSRLKMFAKELKLVFPGAQRMNRGRHEVGALVRACKANGVTDLLVVHEHRGTPVGLIVSHLPFGPTAYFTLCNVVMRHDIPDLGTMSEAKPHLITHGFSSRLGKRVSDILRYLFPVPKDDSHRVITFANQDDYISFRHHVYKKTDHRNVELTEVGPRFELKLYMIRLGTLEQEATADVEWRWHPYTNTARKRVFLSTE [IMP4]	51.4	0.914	-1.9	
MEPAGPCGFCPAGEVQPARYTCPRCNAPYCSLRCYRTHGTCAENFYRDQVLGELRGCSAPPSRLASALRRLRQQRETEDEPGEAGLSSGPAPGGLSGLWERLAPGEKAAFERLLSRGEAGRLLPPWRPWWWNRGAGPQLLEELDNAPGSDAAELELAPARTPPDSVKDASAAEPAAAERVLGDVPGACTPVVPTRIPAIVSLSRGPVSPLVRFQLPNVLFAYAHTLALYHGGDDALLSDFCATLLGVSGALGAQQVFASAEEALQAAAHVLEAGEHPPGPLGTRGAMHEVARILLGEGPTNQKGYTLAALGDLAQTLGRARKQAVAREERDHLYRARKKCQFLLAWTNENEAALTPLALDCARAHQAHAVVAEEVAALTGELERLWGGPVPPAPRTLIEELPS [ZNHIT2]	49.4	0.141	0.384	48.9
MKGLGDSRPRHLSDSLDPPHEPLFAGTDRNPYLLSPTEAFAREARFPGQNTLPGDGLFPLNNQLPPPSSTFPRIHYNSHFEVPEESPFPSHAQATKINRLPANLLDQFEKQLPIHRDGFSTLQFPRGEAKARGESPGRIRHLVHSVQRLFFTKAPSLEGTAGKVGGNGSKKGGMEDGKGRRAKSKERAKAGEPKRRSRSNISGWWSSDDNLDGEAGAFRSSGPASGLMTLGRQAERSQPRYFMHAYNTISGHMLKTTKNNTTELTAPPPPPAPPATCPSLGVGTDTNYVKRGSWSTLTLSHAHEVCQKTSATLDKSLLKSKSCHQGLAYHYLQVPGGGGEWSTTLLSPRETDAAAEGPIPCRRMRSGSYIKAMGDEDSDESGGSPKPSPKTAARRQSYLRATQQSLGEQSNPRRSLDRLDSVDMLLPSKCPSWEEDYTPVSDSLNDSSCISQIFGQASLIPQLFGHEQQVREAELSDQYEAACESACSEAESTAAETLDLPLPSYFRSRSHSYLRAIQAGCSQEEDSVSLQSLSPPPSTGSLSNSRTLPSSSCLVAYKKTPPPVPPRTTSKPFISVTVQSSTESAQDTYLDSQDHKSEVTSQSGLSNSSDSLDSSTRPPSVTRGGVAPAPEAPEPPPKHAALKSEQGTLTSSESHPEAAPKRKLSSIGIQVDCIQPVPKEEPSPATKFQSIGVQVEDDWRSSVPSHSMSSRRDTDSDTQDANDSSCKSSERSLPDCTPHPNSISIDAGPRQAPKIAQIKRNLSYGDNSDPALEASSLPPPDPWLETSSSSPAEPAQPGACRRDGYWFLKLLQAETERLEGWCCQMDKETKENNLSEEVLGKVLSAVGSAQLLMSQKFQQFRGLCEQNLNPDANPRPTAQDLAGFWDLLQLSIEDISMKFDELYHLKANSWQLVETPEKRKEEKKPPPPVPKKPAKSKPAVSRDKASDASDKQRQEARKRLLAAKRAASVRQNSATESADSIEIYVPEAQTRL [DLGAP4]	55.5	-0.0211	0.269	
MDTLDRVVKPKTKRAKRFLEKREPKLNENIKNAMLIKGGNANATVTKVLKDVYALKKPYGVLYKKKNITRPFEDQTSLEFFSKKSDCSLFMFGSHNKKRPNNLVIGRMYDYHVLDMIELGIENFVSLKDIKNSKCPEGTKPMLIFAGDDFDVTEDYRRLKSLLIDFFRGPTVSNIRLAGLEYVLHFTALNGKIYFRSYKLLLKKSGCRTPRIELEEMGPSLDLVLRRTHLASDDLYKLSMKMPKALKPKKKKNISHDTFGTTYGRIHMQKQDLSKLQTRKMKGLKKRPAERITEDHEKKSKRIKKN [RPF2]	53.4	1.42	-2.68	
MAAATIVHDTSEAVELCPAYGLYLKPITKMTISVALPQLKQPGKSISNWEVMERLKGMVQNHQFSTLRISKSTMDFIRFEGEVENKSLVKSFLACLDGKTIKLSGFSDILKVRAAEFKIDFPTRHDWDSFFRDAKDMNETLPGERPDTIHLEGLPCKWFALKESGSEKPSEDVLVKVFEKFGEIRNVDIPMLDPYREEMTGRNFHTFSFGGHLNFEAYVQYREYMGFIQAMSALRGMKLMYKGEDGKAVACNIKVSFDSTKHLSDASIKKRQLERQKLQELEQQREEQKRREKEAEERQRAEERKQKELEELERERKREEKLRKREQKQRDRELRRNQKKLEKLQAEEQKQLQEKIKLEERKLLLAQRNLQSIRLIAELLSRAKAVKLREQEQKEEKLRLQQQEERRRLQEAELRRVEEEKERALGLQRKERELRERLLSILLSKKPDDSHTHDELGVAHADLLQPVLDILQTVSSGCVSATTLHPLGGQPPAGAPKESPAHPEADGAPKSVNGSVAEEAPCKEVQSSCRVVPEDGSPEKRCPGGVLSCIPDNNQQPKGIPACEQNVSRKDTRSEQDKCNREPSKGRGRATGDGLADRHKRERSRARRASSREDGRPRKERRPHKKHAYKDDSPRRRSTSPDHTRSRRSHSKDRHRRERSRERRGSASRKHSRHRRRSERSRSRSPSRHRSTWNR [AKAP17A]	49.2	0.521	-1.06	47
MSTGPTAATGSNRRLQQTQNQVDEVVDIMRVNVDKVLERDQKLSELDDRADALQAGASQFETSAAKLKRKYWWKNCKMWAIGITVLVIFIIIIIVWVVSS [VAMP3]	54.7	-0.16	0.0764	
